Data published in doi:10.1101/2021.05.19.444834v1 (bioRxiv, 2021).

How the values were obtained:
[1] = tested on: ThfB and ThfM; assay: In vitro reconstitution with ThfB and ThfM together; type: biochemical, Thermobifida fusca; details: 10 μM ThfA, 1 μM ThfB, 1 μM ThfM, 0.4 mM SAM, ATP, no KCl, 37 °C; 5 h; LC-MS
[2] = tested on: O-methyltransferase ThfM; assay: In vitro aspartimide formation by ThfM alone; type: biochemical, Thermobifida fusca; details: 10 μM substrate, 1 μM ThfM, 0.4 mM SAM, 100 mM sodium phosphate, 37 °C; LC-MS

modification by ThfM alone [2]: no reaction
Substance: ThfA
conversion to triply dehydrated product [1]: ~ 75%
